According to paper PMC3648463, “Common Interactions between S100A4 and S100A9 Defined by a Novel Chemical Probe” (PLoS ONE, 2013):

Columns and labels:
[1] = target: T1, recombinant human S100A9 (human, UniProt P06702 1-114); assay: SPR; S100A1, A4, A7, A9 and A13 (~1.3 µg/mL) injected (2 min at 30 µL/min) over immobilised S100A4 and S100A9 (~2.5 kRU); 1 mM Ca++ and 20 µM Zn++; responses at late association phase; details: both partners purified
T1 construct: S100A9, human, recombinant; No oligomer size was measured here; also called S100A9 homodimer; source: produced in E. coli at Active Biotech
T1 sequence (looked up): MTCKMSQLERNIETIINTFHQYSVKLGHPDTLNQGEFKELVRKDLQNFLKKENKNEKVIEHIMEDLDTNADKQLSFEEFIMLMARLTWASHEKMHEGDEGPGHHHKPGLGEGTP

[2] = target: the molecule itself; assay: as above

- binding result [1]: binds
B1: recombinant human S100A4 (natural protein)
chain: not shown
notes: S100A4, human, recombinant (R&D Systems); No catalogue number, limits or tags are stated; also called S100A4 homodimer; metastasin; source: bought: R&D Systems
- binding result [2]: binds
